This is an account of results in patent US20210155712A1.

Assay [1] concerns the target recombinant human HER3 (human) (UniProt P21860). The assay is described as follows: BLI (Octet QK384), antibody on AHC sensors, His-tagged human HER3 in solution, absence of human NRG1.
The target in assay [2] is human HER3 expressed on cells (human) (UniProt P21860). The assay is described as follows: flow cytometry, HEK293T HER3 O/E cells, 10 ug antibody, FITC channel.
The target of assay [3] is human HER3:human NRG1 complex (human) (UniProt Q02297). Put plainly: BLI (Octet QK384), antibody on AHC sensors, human HER3-NRG1 complex (1:1 molar ratio) in solution, presence of human NRG1.

Chain of anti-HER3 antibody clone LJM716 (VH): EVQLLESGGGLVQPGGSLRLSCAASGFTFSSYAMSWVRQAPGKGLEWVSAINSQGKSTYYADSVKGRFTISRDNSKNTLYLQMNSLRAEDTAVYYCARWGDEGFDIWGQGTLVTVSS
Chain of anti-HER3 antibody clone LJM716 (VL): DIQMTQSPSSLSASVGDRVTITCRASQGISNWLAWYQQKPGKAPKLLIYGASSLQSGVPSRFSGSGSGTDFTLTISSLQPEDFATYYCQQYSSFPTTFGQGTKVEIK

In the case of anti-HER3 antibody clone LJM716, the Kd in assay [1] is less than 0.001 nM; in assay [3], 16.8 nM. Besides, the % Parent (HER3 positive) in assay [2] came to 74.4%.
